Measurements as given in the Human Domainome abundance scans (Beltran et al. 2025).

B1: E3 ubiquitin-protein ligase NEDD4, residues 836 to 881; numbered along this chain, P46934 (parent)
chain: EIEQGFLPKGWEVRHAPNGRPFFIDHNTKTTTWEDPRLKIPAHLRG

Variants of: B1
Test: abundance fitness (aPCA) (normalised: wild type 0, dead -1); higher = more abundant; growth selection in yeast, the domain comes from the species named
Settings: Homo sapiens

Abundance fitness of substitutions, site by site:
V13: W -0.842; K -0.032; E 0.069; C -0.252; T -0.529; Q -0.135; F -0.159; P -0.764; Y -0.799; A -0.266; R -0.149; S -0.399; N -0.836; L -0.122; H -0.724; G -0.747; M 0.05
K9: G -0.252; P -0.211; C -0.268; Y -0.316; Q -0.078; R -0.205; N -0.112; H -0.251; W -0.52; T -0.237; A -0.124; M -0.344; L -0.257; S -0.048; E -0.119; F -0.825
H15: C 0.166; W -0.133; Y -0.147; L -0.013; N -0.113; F -0.074; R -0.004; Q -0.257; T -0.047; A -0.095; G -0.508; E -0.116; D -0.031; P -0.507; M -0.34; I -0.051; K 0.081
F22: K -0.702; I -0.168; V -0.211; G -0.712; T -0.536; D -0.35; C -0.122; S -0.797; H -0.844; R -0.745; E -0.393; Q -0.239; L -0.151; A -0.688; N -0.774
P8: G -0.625; C -0.969; T -0.432; R -0.648; E -0.594; V -0.96; Q -0.814; I -0.623; H 0.162; A -0.766; L -0.988; F -0.341; W -0.856; K 0.223; N -0.611; D -0.626; M -0.692
G19: N -0.551; E -0.628; P -0.695; H -0.496; M -0.827; T -1.05; A -0.734; Y -0.828; W -0.833; Q -0.632; K -0.826; C -0.929; D -0.943; L -0.923
I24: G -0.98; N -0.715; C -0.402; Q -0.947; E -0.849; P -0.929; H -0.523; L 0.003; F -0.522; A -0.818
F23: I -0.896; H -0.656; W -0.147; C -0.966; K -0.47; Q -0.824; L -0.633; D -0.679; M -0.751; T -0.883; V -0.651; Y -0.27; S -0.856; G -0.566; N -0.79; A -0.416
G5: C -0.21; H -0.313; K 0.015; W -0.105; R -0.123; S -0.068; V -0.171; Y 0.008; F -0.158; P -0.26; I -0.219; E -0.141; A -0.064; M -0.175; L -0.217; Q -0.299; N 0.031
P21: V -0.149; I 0.033; Q -0.058; W -0.402; D -0.445; F -0.601; A -0.055; R -0.109; C -0.084; Y 0.055; N -0.487; T -0.451; M -0.218; S -0.233; L -0.131; E -0.149; K 0.027
E12: N -0.949; A -0.533; I -0.633; Q -0.307; L -0.942; K -0.599; F -0.352; V -0.526; P -0.967; T -0.274; W -0.692; C -0.758; S -0.278; H -0.227; R -0.793; M -0.89; G -0.882
P17: G -0.323; C -0.295; K -0.115; N -0.308; H -0.276; V -0.191; Q -0.585; A -0.075; Y -0.662; E 0.016; L -0.197; W -0.419; F -0.447; T -0.298; R -0.178; I -0.012
F6: P 0.001; W -0.063; R 0.149; K 0.117; I 0.372; Y 0.018; A 0.155; V 0.038; M -0.345; T 0.202; D 0.241; G 0.09; C 0.265; H 0.05; L 0.051; S 0.16; Q -0.297
L7: Q -0.38; K -0.601; M -0.186; Y -0.915; N -1.01; F -0.459; S -0.573; T -0.441; W -0.577; G -0.524; A -0.599; E -0.437; R -1.03; P -0.473; C -0.882; H -0.543; I -0.493
N18: H -0.718; P -0.255; M -0.907; A -0.69; R -0.805; L -0.696; Q -1.06; I -0.976; G -0.063; S -0.241; T -0.29; C -0.256; W -0.664; E -0.232; F -0.75; Y -0.802; V -0.83; K -0.652
G10: D -0.81; V -0.816; N -0.12; C -0.722; F -0.6; H -0.493; Y -0.781; I -1.17; T -1; P -0.829; E -0.605; L -0.95; M -0.854; W -0.802; R -0.627; S -0.831; K -0.886
Q4: P -0.116; M -0.387; S -0.024; R -0.002; K 0.127; T -0.242; W -0.298; N -0.092; I -0.335; Y -0.016; L -0.062
A16: P -0.416; L -0.345; Y -0.657; T 0.127; C -0.11; M -0.216; R -0.668; I -0.193; Q -0.353; E -0.387; V -0.505; N -0.435; K -0.698; G -0.108
R14: Y -0.407; D -0.289; M -0.525; Q -0.121; C -0.07; W -0.458; F -0.272; A -0.156; T -0.562; H -0.47; S -0.297; I -0.556; G -0.114; P -0.407; N -0.783; E -0.539
W11: P -0.817; G -0.575; K -0.409; T -0.792; F -0.795; N -0.106; S -0.424; L -0.648; M -0.563; E -0.326; A -0.79; D -0.539; H -0.761; Q -0.455; C -0.418; I -0.459
R20: F -0.78; I -0.257; G -0.917; T -0.207; Y -0.577; C -0.278; W -0.946; L -0.223; E -0.035; V -0.105; A 0.016; Q 0.137; S -0.087; K 0.16; P -0.857; M -0.052; D -0.212; N -0.271; H -0.064
